Measurements as given in US20220177587A1, “METHODS AND USES OF VARIANT CD80 FUSION PROTEINS AND RELATED CONSTRUCTS” (Alpine Immune Sciences, Inc., priority 2018, published 2022).
Read-outs that look alike come from different tables or passages of the source.

Legend:
CD28 (human) [1] = target: CD28 (human) (UniProt P10747); assay: flow cytometry, Jurkat cells (CD28)
CD28 (human) [2] = target: CD28 (human) (UniProt P10747)
PD-L1 (human) [3] = target: PD-L1 (human) (UniProt Q9NZQ7)
Target sequence in this assay (Q9NZQ7 19-290): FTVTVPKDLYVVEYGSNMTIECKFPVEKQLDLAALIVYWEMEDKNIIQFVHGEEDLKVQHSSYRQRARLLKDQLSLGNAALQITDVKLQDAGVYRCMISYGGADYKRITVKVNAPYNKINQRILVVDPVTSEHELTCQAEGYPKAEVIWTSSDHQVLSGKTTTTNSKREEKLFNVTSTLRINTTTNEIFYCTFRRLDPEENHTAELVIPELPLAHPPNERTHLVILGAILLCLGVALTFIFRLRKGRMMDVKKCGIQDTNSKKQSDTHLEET

PD-L1 (human) [4] = target: PD-L1 (human) (UniProt Q9NZQ7); assay: flow cytometry, CHO cells expressing PD-L1
Target sequence in this assay (Q9NZQ7 19-290): as above

CD28 (human) [5] = target: CD28 (human) (UniProt P10747); assay: flow cytometry, Jurkat cells (CD28); remark: listed apart in the source
human CTLA-4 (human) = human CTLA-4 (human) (UniProt P16410); assay: flow cytometry, CHO cells stably expressing CTLA4
PD-L1 (human) [6] = target: PD-L1 (human) (UniProt Q9NZQ7); assay: flow cytometry, CHO cells stably expressing PD-L1

human CTLA-4 (human), sequence (P16410 36-223): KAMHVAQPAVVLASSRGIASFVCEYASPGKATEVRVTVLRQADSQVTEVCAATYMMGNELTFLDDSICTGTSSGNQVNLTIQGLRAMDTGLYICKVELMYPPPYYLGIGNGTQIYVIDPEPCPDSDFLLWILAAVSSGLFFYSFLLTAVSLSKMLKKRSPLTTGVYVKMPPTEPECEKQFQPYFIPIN

Row | Substance | Jurkat/IL2 reporter RLU at 50 nM, K562/OKT3/PD-L1 aAPC (CD28 (human) [2]) [RLU] | Jurkat/IL2 reporter RLU at 50 nM, K562/OKT3/PD-L1 aAPC (PD-L1 (human) [3]) [RLU] | MFI at 33.3 nM (CD28 (human) [5]) [MFI] | MFI at 33.3 nM (human CTLA-4 (human)) [MFI] | MFI at 33.3 nM (PD-L1 (human) [6]) [MFI] | further results
1 | CD80 IgV-Fc A26E/Q27R/E35D/M47L/N48Y/L85Q (Fc fusion) |  |  |  |  |  | MFI at 33.3 nM (CD28 (human) [1]): 78 MFI
2 | CD80 Q33L/E35D/M47L/V68M/L85Q/E88D IgV-Fc (inert) (Fc fusion) | 572 | 572 |  |  |  | 
3 | CD80 Q33L/E35D/M47V/T79A IgV-Fc (inert) (Fc fusion) | 527 | 527 |  |  |  | 
4 | CD80 E24D/Q33L/E35D/M47V/K54R/L85Q IgV-Fc (inert) (Fc fusion) | 3240 | 3240 |  |  |  | 
5 | CD80 V22D/E24D/E35D/M47L/V68M IgV-Fc (Fc fusion) |  |  |  |  |  | MFI at 33.3 nM (CD28 (human) [1]): 1250 MFI; MFI at 33.3 nM (PD-L1 (human) [4]): 15400 MFI
6 | CD80 E35D/M47I/K54R/L85E IgV-Fc (inert) (Fc fusion) | 602 | 602 |  |  |  | 
7 | CD80 E35D/M47I/V68M/Y87N IgV-Fc (Fc fusion) |  |  |  |  |  | MFI at 33.3 nM (PD-L1 (human) [4]): 13100 MFI
8 | CD80 V22A/R29H/E35D/D46E/M47I IgV-Fc (inert) (Fc fusion) | 3310 | 3310 |  |  |  | 
9 | variant CD80 IgV-Fc H18Y/A26E/M47L/V68M/A71G/D90G (Fc fusion) |  |  | 2560 | 121 | 31700 | Fold change to WT CD80 (CD28 (human) [5]): 58.2 fold; Fold change to WT CD80 (PD-L1 (human) [6]): 727 fold
10 | variant CD80 IgV-Fc H18Y/A26E/A71G/D90G (Fc fusion) |  |  | 2000 | 19900 |  | 
11 | variant CD80 IgV-Fc H18Y/M47L/V68M/A71G (Fc fusion) |  |  | 1190 |  | 28500 | 
12 | CD80 E35D/M47I/E77A/L85Q/R94W IgV-Fc (inert) (Fc fusion) | 473 | 473 |  |  |  | 
13 | variant CD80 IgV-Fc A26E/M47L/V68M/D90G (Fc fusion) |  |  | 2580 | 21900 | 10600 | 
14 | CD80 Q33L/E35D/T41S/M47V IgV-Fc (inert) (Fc fusion) | 481 | 481 |  |  |  | 
15 | CD80 Q33L/E35D/D46E/M47I IgV-Fc (inert) (Fc fusion) | 554 | 554 |  |  |  | 
16 | CD80 Q33L/E35D/M47I/T62N/L85Q IgV-Fc (inert) (Fc fusion) | 463 | 463 |  |  |  | 
17 | variant CD80 IgV-Fc A26E/M47L/V68M/A71G/D90G (Fc fusion) |  |  | 2790 | 21800 | 28100 | 
18 | variant CD80 IgV-Fc A26E/E35D/M47L/A71G/D90G (Fc fusion) |  |  | 1270 | 22100 | 14600 | 
19 | CD80 E35D/D46E/M47V/L97Q IgV-Fc (inert) (Fc fusion) | 1090 | 1090 |  |  |  | 
20 | variant CD80 IgV-Fc H18Y/A26E/E35D/V68M (Fc fusion) |  |  | 372 | 20900 | 17900 | 
21 | variant CD80 IgV-Fc H18Y/A26E/E35D/M47L/A71G/D90G (Fc fusion) |  |  |  |  | 16900 | 
22 | variant CD80 IgV-Fc H18Y/E35D/M47L/A71G/D90G (Fc fusion) |  |  | 1270 | 23000 | 13300 | Fold change to WT CD80 (human CTLA-4 (human)): 16.9 fold; Fold change to WT CD80 (PD-L1 (human) [6]): 306 fold
23 | CD80 Q33L/E35D/N48K/L85Q/L97Q IgV-Fc (inert) (Fc fusion) | 358 | 358 |  |  |  | 
24 | CD80 E35D/D46E/M47L/V68M/T79M/L85M IgV-Fc (Fc fusion) |  |  |  |  |  | MFI at 33.3 nM (CD28 (human) [1]): 403 MFI; MFI at 33.3 nM (PD-L1 (human) [4]): 8640 MFI
25 | CD80 H18Y/E35D/V68M/L97Q IgV-Fc (inert) (Fc fusion) | 4340 | 4340 |  |  |  | 
26 | variant CD80 IgV-Fc H18Y/E35D/V68M/A71G/D90G (Fc fusion) |  |  | 2720 | 24300 | 30100 | 

Row | Substance | Jurkat/IL2 reporter RLU at 50 nM, K562/OKT3/PD-L1 aAPC (CD28 (human) [2]) [RLU] | Jurkat/IL2 reporter RLU at 50 nM, K562/OKT3/PD-L1 aAPC (PD-L1 (human) [3]) [RLU] | MFI at 33.3 nM (CD28 (human) [5]) [MFI] | MFI at 33.3 nM (human CTLA-4 (human)) [MFI] | MFI at 33.3 nM (PD-L1 (human) [6]) [MFI] | further results
27 | CD80 A26E/Q33L/E35D/M47L IgV-Fc (inert) (Fc fusion) | 476 | 476 |  |  |  | 
28 | CD80 A26E/Q33R/E35D/M47L/L85Q/K86E IgV-Fc (inert) (Fc fusion) | 569 | 569 |  |  |  | 
29 | CD80 Q33L/E35D/M47I IgV-Fc (inert) (Fc fusion) | 423 | 423 |  |  |  | 
30 | CD80 Q33K/E35D/D46V/L85Q IgV-Fc (inert) (Fc fusion) | 504 | 504 |  |  |  | 
31 | CD80 H18Y/V20A/Q33L/E35D/M47V/Y53F IgV-Fc (inert) (Fc fusion) | 566 | 566 |  |  |  | 
32 | variant CD80 IgV-Fc E35D/M47L/V68M/A71G (Fc fusion) |  |  | 806 | 24700 | 27900 | Fold change to WT CD80 (human CTLA-4 (human)): 18.1 fold; Fold change to WT CD80 (PD-L1 (human) [6]): 639 fold
33 | variant CD80 IgV-Fc H18Y/A26E/E35D/M47L/V68M/A71G (Fc fusion) |  |  | 526 | 25400 | 28500 | Fold change to WT CD80 (human CTLA-4 (human)): 18.7 fold; Fold change to WT CD80 (PD-L1 (human) [6]): 655 fold
34 | variant CD80 IgV-Fc A26E/M47L/V68M/A71G (Fc fusion) |  |  | 98.7 | 3230 | 1670 | 
35 | variant CD80 IgV-Fc A26E/E35D/V68M/A71G (Fc fusion) |  |  | 135 |  | 12600 | 
36 | variant CD80 IgV-Fc H18Y/E35D/M47L/A71G (Fc fusion) |  |  |  | 22400 | 11900 | 
37 | CD80 Q33L/E35D/M47L/A71G/F92S IgV-Fc (inert) (Fc fusion) | 394 | 394 |  |  |  | 
38 | variant CD80 IgV-Fc H18Y/A26E/E35D/D90G (Fc fusion) |  |  |  |  | 10000 | 
39 | CD80 E35D/M47V/T62A/A71G/V83A/Y87H/L97M IgV-Fc (inert) (Fc fusion) | 438 | 438 |  |  |  | 
40 | CD80 Q27H/Q33L/E35D/M47V/N55D/L85Q/K89N IgV-Fc (inert) (Fc fusion) | 551 | 551 |  |  |  | 
41 | CD80 V22D/E24D/E35D/M47L/V68M/L85M/D90G IgV-Fc (Fc fusion) |  |  |  |  |  | MFI at 33.3 nM (CD28 (human) [1]): 1180 MFI; MFI at 33.3 nM (PD-L1 (human) [4]): 19000 MFI
42 | variant CD80 IgV-Fc A26E/E35D/M47L/V68M/D90G (Fc fusion) |  |  |  | 26700 | 25000 | 
43 | CD80 E35D/D46E/M47L/V68M/A71G/Y87C/K93R IgV-Fc (Fc fusion) |  |  |  |  |  | MFI at 33.3 nM (PD-L1 (human) [4]): 24300 MFI
44 | CD80 T13R/E35D/M47L/V68M IgV-Fc (Fc fusion) |  |  |  |  |  | MFI at 33.3 nM (CD28 (human) [1]): 15.6 MFI; MFI at 33.3 nM (PD-L1 (human) [4]): 20000 MFI
45 | variant CD80 IgV-Fc E35D/V68M/A71G/D90G (Fc fusion) |  |  | 2840 | 23300 | 28000 | 
46 | CD80 ECD-Fc (Fc fusion) |  |  | 42.3 |  | 6380 | 
47 | variant CD80 IgV-Fc H18Y/M47L/A71G/D90G (Fc fusion) |  |  | 1600 | 18200 | 10800 | 
48 | variant CD80 IgV-Fc E35D/M47L/V68M/A71G/D90G (Fc fusion) |  |  | 3070 | 26000 | 29400 | 
49 | variant CD80 IgV-Fc A26E/E35D/M47L/V68M/A71G (Fc fusion) |  |  | 417 | 24600 | 27800 | Fold change to WT CD80 (human CTLA-4 (human)): 18.1 fold; Fold change to WT CD80 (PD-L1 (human) [6]): 638 fold
50 | variant CD80 IgV-Fc H18Y/E35D/M47L/V68M/D90G (Fc fusion) |  |  | 3390 |  | 27400 | 
51 | variant CD80 IgV-Fc H18Y/M47L/V68M/A71G/D90G (Fc fusion) |  |  |  | 22200 | 29500 | 
